1 sequence from PMC7302350 can be followed below.

For this data set, the target named is DOT1L (1-416), recombinant (Homo sapiens) (UniProt Q8TEK3). As to the kind of experiment: EMSA. Particulars: EMSA: 10 mM HEPES pH 7.3, 20 mM KCl, 1 mM MgCl2, 1 mM DTT, 5% glycerol, 100 ug/mL tRNA, room temperature 30 min; pull-down: Pierce Magnetic RNA-Protein ….
Sequence of UniProt Q8TEK3 (Q8TEK3 1-416): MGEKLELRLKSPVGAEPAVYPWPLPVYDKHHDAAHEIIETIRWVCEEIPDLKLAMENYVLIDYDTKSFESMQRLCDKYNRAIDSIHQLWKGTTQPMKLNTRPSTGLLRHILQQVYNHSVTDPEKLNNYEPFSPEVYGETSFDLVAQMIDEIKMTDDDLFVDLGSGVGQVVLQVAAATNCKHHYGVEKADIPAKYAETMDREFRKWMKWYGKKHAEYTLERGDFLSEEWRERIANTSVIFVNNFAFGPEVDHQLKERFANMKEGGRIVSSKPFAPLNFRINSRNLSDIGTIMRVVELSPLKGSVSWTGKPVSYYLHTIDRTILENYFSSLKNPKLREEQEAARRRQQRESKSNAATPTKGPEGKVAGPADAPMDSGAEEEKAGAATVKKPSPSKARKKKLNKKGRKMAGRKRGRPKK

Turning to “GGGACAUUCGAGCAGCUGCUCUGGAGAAACAGCAGGAUCUACGGAAGUUUGUACCCACCGCCUCGCCUGCAGCCUCGGGAGUCUCAACCCAAGCCGGCCCGGCCUUGUAGCCCAGAGCAGCAAAGCCACAGCAGGCAACGCGAGCUAACGCGGGUCGCGCGGAGGUCGGGAGCCCAGGCGGCGGAGGCGGCGGCGGCGCAGUUAUUCCCGGGUGACUCUGGGGACUCGUGCAGAUGGGGGACGCCUCCGGCCACGCACUUGGAGCCA [LAMP5-AS1 503-764]”, the binding entry is reported as “binds”.
